± gives the uncertainty stated by the source.
Assay: protein stability index of a GFP-peptide fusion (yeast GPS) (PSI 1-4); higher = more stable; sorted into four equal gates, so the index is relative within each strain
Outline: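 Tiled 17-residue yeast protein peptides were fused downstream of GFP in a plasmid that also expresses Cherry, and the pooled library was carried in yeast. Mid-log cultures in leucine-free medium were sorted into four equal gates by GFP/Cherry fluorescence ratio, and plasmids from each gate were PCR-amplified and Illumina-sequenced, with reads assigned to strains by barcodes. The protein stability index for each peptide was each gate's read frequency times its gate number, summed.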

| Sequence | protein stability index (doa10∆) | protein stability index (pdr5∆) | protein stability index (san1∆) | protein stability index (ubr1∆) |
| --- | --- | --- | --- | --- |
| DVTALLEQGFKVVSAKE [YCS4] | 2.48 ± 0.12 | 1.68 ± 0.077 | 2.9 ± 0.098 | 3.37 ± 0.16 |
| FTGQGSQEQGMGMDLYK [FAS1] | 3.28 ± 0.12 | 3.4 ± 0.093 | 3.41 ± 0.1 | 3.4 ± 0.088 |
| TYGISVVDVALKYPELS [NUT1] | 2.04 ± 0.057 | 2.42 ± 0.075 | 2.04 ± 0.078 | 2.6 ± 0.041 |
| TSTITKYKQLLLKDDTY [RPN3] | 2.71 ± 0.12 | 2.73 ± 0.15 | 2.89 ± 0.073 | 2.9 ± 0.084 |
| LLNAADRDALSGWGAVV [PUP3] | 3.17 ± 0.12 | 3.2 ± 0.099 | 3.03 ± 0.081 | 3.09 ± 0.099 |
| KVPIGLILQRLKDLNLT [RGR1] | 2.48 ± 0.1 | 2.57 ± 0.09 | 2.98 ± 0.074 | 2.63 ± 0.053 |
| EAFGNIKIDAKPALFER [MCD1] | 2.11 ± 0.083 | 2.89 ± 0.15 | 1.84 ± 0.21 | 2.58 ± 0.078 |
| TELLDEFIAAVNNPQEE [RPN10] | 3.01 ± 0.17 | 3.17 ± 0.14 | 3.08 ± 0.064 | 2.83 ± 0.15 |
| IIHVLTTMFENTGWSCS [RGR1] | 2.16 ± 0.054 | 2.33 ± 0.077 | 2.7 ± 0.077 | 2.73 ± 0.044 |
| RSGALIKFKKCDGDTVW [SSN2] | 2.85 ± 0.053 | 2.9 ± 0.048 | 2.62 ± 0.048 | 2.71 ± 0.043 |
| VEKVATAVLSTTARAKA [RPN2] | 3 ± 0.12 | 3.32 ± 0.086 | 2.93 ± 0.13 | 3.1 ± 0.081 |
| LLAEEEELILPNTKDAM [PRP8] | 3.16 ± 0.089 | 3.44 ± 0.072 | 3.36 ± 0.063 | 3.04 ± 0.079 |
| TKNNTQASGITAGAAAN [SSN3] | 1.86 ± 0.094 | 2.08 ± 0.051 | 2.07 ± 0.11 | 1.97 ± 0.062 |
| ATVEECVKLTVRSLLEV [PRE6] | 1.53 ± 0.052 | 1.72 ± 0.064 | 1.88 ± 0.12 | 1.47 ± 0.055 |
| WSWDIAVDNCAICRNHI [HRT1] |  |  |  | 2.04 ± 0.23 |
| DTLCGIRKLTLRDTFIE [RPO21] | 2.91 ± 0.085 | 1.58 ± 0.058 | 1.26 ± 0.1 | 1.46 ± 0.056 |
| GRGRGRGRPPKARNGLD [SNF2] | 3.13 ± 0.084 | 3.17 ± 0.075 | 3.29 ± 0.047 | 3.33 ± 0.057 |
| ATSTKVSVEGVNVEKFN [RPL6A] | 2.88 ± 0.11 | 3.4 ± 0.11 | 3.31 ± 0.059 | 3.16 ± 0.1 |
| QNYLKTYNEDIPVEILV [PRE9] | 2.79 ± 0.066 | 2.05 ± 0.084 | 2.76 ± 0.091 | 2.38 ± 0.071 |
| SNDIIDKPYLLRIVTHL [YDL116W/NUP84] | 1.93 ± 0.11 | 1.99 ± 0.09 | 3.09 ± 0.15 | 1.93 ± 0.076 |
| VNFTEIGGLIPQWKRHL [YCS4] | 3.46 ± 0.25 |  |  |  |
| GITGNLDRIPMHSYFIF [COB] | 2.13 ± 0.12 | 2.19 ± 0.085 | 2.39 ± 0.072 | 2.43 ± 0.12 |
| APDSEYLCFILSTRAGG [SNF2] | 1.97 ± 0.055 | 1.97 ± 0.058 | 2.01 ± 0.063 | 1.93 ± 0.041 |
| RGRNDTLERVHLSYCSN [GRR1] | 3.01 ± 0.055 | 3.2 ± 0.068 | 2.69 ± 0.1 | 2.98 ± 0.046 |
| GASGVDDFQNFFDPKPF [SWI1] | 2.65 ± 0.065 | 2.68 ± 0.064 | 2.92 ± 0.092 | 3.11 ± 0.046 |
| GFVIQDRETALDFIGRR [RPB2] | 3.02 ± 0.075 | 2.92 ± 0.13 | 3.34 ± 0.077 | 3 ± 0.11 |
| ESYDAALSLHREILCYS [FAS2] | 2.18 ± 0.022 | 2.151 ± 0.019 | 2.28 ± 0.028 | 2.28 ± 0.017 |

| Sequence | protein stability index (doa10∆) | protein stability index (pdr5∆) | protein stability index (san1∆) | protein stability index (ubr1∆) |
| --- | --- | --- | --- | --- |
| GNPGLPQYQYQRRYVIK [ITC1] | 3.27 ± 0.2 | 3.04 ± 0.15 | 2.87 ± 0.079 | 3.34 ± 0.095 |
| VLRRLLAKYRDAGKIDK [RPL19A] | 3.29 ± 0.18 | 3.37 ± 0.15 |  | 3.61 ± 0.093 |
| TDLESLSSGESNEIKVT [SIR4] | 2.99 ± 0.13 | 2.93 ± 0.11 | 2.69 ± 0.1 | 2.46 ± 0.071 |
| SRNNTLNVTPSKRPQLG [SIR4] | 2.96 ± 0.1 | 2.97 ± 0.093 | 2.8 ± 0.096 | 2.85 ± 0.073 |
| NNSDDEDVDDEELDITP [IRR1] | 3.25 ± 0.099 | 3.46 ± 0.11 | 3.58 ± 0.083 | 3.31 ± 0.077 |
| GATVFVNHLLLFAREIA [DPB4] | 1.94 ± 0.046 | 1.9 ± 0.04 | 1.41 ± 0.087 | 1.72 ± 0.039 |
| LITTNSVEEVILERAYK [SNF2] | 2.37 ± 0.092 | 1.85 ± 0.063 | 2.18 ± 0.09 | 1.95 ± 0.031 |
| EIPSEDQNEFLLERTRE [FAS2] | 3.33 ± 0.094 | 3.3 ± 0.12 | 3.35 ± 0.081 | 3.22 ± 0.079 |
| EDKVFASKGRTKIDMPI [BRN1] |  |  | 2.59 ± 0.26 |  |
| NTIGSVHGKAPMLMANN [SSN3] | 1.54 ± 0.18 | 1.54 ± 0.11 | 1.48 ± 0.19 | 1.89 ± 0.19 |
| RPTGGANMATVPSTTNV [MED6] | 2.66 ± 0.062 | 2.93 ± 0.06 | 2.42 ± 0.17 | 2.91 ± 0.04 |
| VSSAKFSGKYLKYLTKK [RPL22B] | 2.82 ± 0.25 | 2.52 ± 0.2 | 2.59 ± 0.12 | 2.66 ± 0.18 |
| KKIRNVPVRDGVTIEFS [RPL9A] | 2.59 ± 0.11 | 2.55 ± 0.15 | 2.43 ± 0.16 | 3.21 ± 0.092 |
| KAAGLTAAYARTIGIAV [RPL13A] | 1.56 ± 0.077 | 1.46 ± 0.059 | 1.22 ± 0.11 | 1.38 ± 0.089 |
| MTRILPQQSRYISFIKD [RPN2] | 2.16 ± 0.057 | 2.6 ± 0.057 | 1.87 ± 0.067 | 1.92 ± 0.053 |
| ELVIRLEKDAADCQAEL [YIL149C/MLP2] | 2.93 ± 0.25 | 3.05 ± 0.18 | 3.18 ± 0.22 | 3.07 ± 0.22 |
| EQFPFYLHDNASKVLLK [IRR1] | 2.45 ± 0.081 | 2.47 ± 0.065 | 1.91 ± 0.075 | 2.41 ± 0.052 |
| IIPIVDYAQLDHLVSSI [ARP9] | 2.13 ± 0.05 | 2.48 ± 0.051 | 2.34 ± 0.053 | 2.38 ± 0.039 |
| DIICEDSTLILEQLAQH [RPB2] | 2.24 ± 0.047 | 2.56 ± 0.057 | 2.57 ± 0.084 | 2.35 ± 0.051 |
| TNSHYNNTNTDNVSGLT [SNF2] | 3.19 ± 0.062 | 3.31 ± 0.046 | 3.37 ± 0.044 | 3.25 ± 0.034 |
| YNYCVNKSRSSGHFSTD [CDC53] | 2.8 ± 0.056 | 2.54 ± 0.046 | 2.23 ± 0.049 | 2.54 ± 0.036 |
| NITDNLFQELSKVVDDM [GRR1] | 2.69 ± 0.067 | 2.62 ± 0.083 | 2.28 ± 0.07 | 2.81 ± 0.098 |
| TPKYRLVVRFTNKDIIC [RPL5] | 1.75 ± 0.078 | 1.64 ± 0.11 | 1.17 ± 0.2 | 1.36 ± 0.071 |
| ITIQDLLFPKSTIVNLA [DPB4] | 2.45 ± 0.066 | 2.71 ± 0.11 | 2.51 ± 0.069 | 2.59 ± 0.083 |
| IMFNHARIIRSELLARD [RGR1] | 1.58 ± 0.11 | 2.17 ± 0.14 | 2.62 ± 0.14 | 2.55 ± 0.086 |
| ATGFGAHMANPLLRKVV [PRE4] | 3.29 ± 0.14 | 3.02 ± 0.13 | 1.58 ± 0.17 | 3.34 ± 0.18 |
| AFKSVVSTETFEQPSQR [RPL27A] | 2.88 ± 0.062 | 2.82 ± 0.059 | 2.71 ± 0.053 | 3.11 ± 0.067 |

— the supplement of paper PMC9732359
